15 molecules from patent publication US20200024322A1 (Eli Lilly, published 2020) can be followed below.

One experiment has as its target T1, human GLP-1 receptor (human, UniProt P43220 24-463).
T1 construct: whole, on cells; Used as crude membranes of stably transfected HEK293 cells; also called hGLP1R; hGLP-1R
Description: SPA, [125I]-GLP-1 displacement, hGLP-1R membranes.

The target in another experiment is T2, human glucagon receptor (human, UniProt P47871 26-477).
T2 construct: whole, on cells; Used as crude membranes of stably transfected HEK293 cells; also called hGcgR; hGLcgR
Nature of the experiment: SPA, [125I]-Gcg displacement, hGcgR membranes.

Another experiment addresses T3, human GIP receptor (human, UniProt P48546 22-466).
T3 construct: whole, on cells; Used as crude membranes of stably transfected CHO cells; also called hGIPR
T3 sequence (looked up): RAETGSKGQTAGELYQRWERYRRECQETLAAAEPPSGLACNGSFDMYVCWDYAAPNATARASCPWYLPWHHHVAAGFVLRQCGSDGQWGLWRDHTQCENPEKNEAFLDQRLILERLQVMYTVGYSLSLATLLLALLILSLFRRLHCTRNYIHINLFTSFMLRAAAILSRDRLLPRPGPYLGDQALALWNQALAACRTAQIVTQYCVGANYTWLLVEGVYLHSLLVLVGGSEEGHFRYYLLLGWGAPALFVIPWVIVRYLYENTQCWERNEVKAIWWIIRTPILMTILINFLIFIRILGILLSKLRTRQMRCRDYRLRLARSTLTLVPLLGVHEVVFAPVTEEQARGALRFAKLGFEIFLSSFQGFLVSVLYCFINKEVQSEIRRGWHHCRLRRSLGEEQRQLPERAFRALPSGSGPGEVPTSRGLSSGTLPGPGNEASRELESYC
Nature of the experiment: SPA, [125I]-GIP displacement, hGIPR membranes.

Numbered stars: 1 amine (or outer) side, 2 acyl side, 3 side chain; on linkers, the order of the positions; unused ones are H or OH. Square brackets hold non-standard residues; d marks the D form. Side chains are listed from the residue outwards. Ends that are not written are not given here. * marks the point of attachment. C20 diacid = O=C(O)CCCCCCCCCCCCCCCCCCC(=O)*; αMePhe(2-F) = C[C@](N)(Cc1ccccc1F)C(=O)O; γGlu = O=C(O)[C@H](CCC(=O)[*:2])N[*:1]; αMeL = CC(C)C[C@](C)(N)C(=O)O; AEEA = NCCOCCOCC(=O)O; Aib = CC(C)(N)C(=O)O

T2 sequence (P47871 26-477): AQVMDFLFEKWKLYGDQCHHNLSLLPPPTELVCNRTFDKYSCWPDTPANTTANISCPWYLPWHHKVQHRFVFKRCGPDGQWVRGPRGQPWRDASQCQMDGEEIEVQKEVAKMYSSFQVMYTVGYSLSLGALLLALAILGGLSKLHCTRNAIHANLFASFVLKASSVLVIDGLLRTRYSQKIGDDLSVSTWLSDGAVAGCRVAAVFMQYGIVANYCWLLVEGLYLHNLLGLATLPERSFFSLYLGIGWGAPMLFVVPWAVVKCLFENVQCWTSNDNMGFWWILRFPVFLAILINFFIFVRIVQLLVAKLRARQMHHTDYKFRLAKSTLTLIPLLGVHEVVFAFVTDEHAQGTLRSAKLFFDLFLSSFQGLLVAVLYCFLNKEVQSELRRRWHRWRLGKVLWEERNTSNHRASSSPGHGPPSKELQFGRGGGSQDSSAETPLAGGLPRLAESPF

B1: Example 119 (peptide)
peptide: FXEGTXTSDYSIXLDEKAQXAFIEYLIEGGPSSGAPPPS
modifications: Aib2; αMeF6; αMeL13; K17((2-[2-(2-Amino-ethoxy)-ethoxy]-acetyl)2-(γ-Glu)-CO-(CH2)18-CO2H); Aib20; C-terminal NH2
For the molecule B1, the inhibitory constant (Ki) with human GLP-1 receptor stood at 9.87 nM; in the experiment with human glucagon receptor, 30.6 nM; with human GIP receptor, 0.0925 nM.

B2: Example 153 (peptide)
peptide: YXEGTXTSDYSIXLDEKAQXEFIHYLIEGGPSSGAPPPS
modifications: Aib2; αMeF(2F)6; αMeL13; K17((2-[2-(2-Amino-ethoxy)-ethoxy]-acetyl)2-(γ-Glu)-CO-(CH2)18-CO2H); Aib20; C-terminal NH2
Turning to B2, the values for the Ki in the experiment with human GLP-1 receptor, in the experiment with human glucagon receptor and with human GIP receptor were 22.2 nM, 43.8 nM and 0.0578 nM, respectively.

B3: Example 163 (peptide)
peptide: HXEGTXTSDYSIXLDEKAQXEFIEYLIEGGPSSGAPPPS
modifications: Aib2; αMeF(2F)6; αMeL13; K17((2-[2-(2-Amino-ethoxy)-ethoxy]-acetyl)2-(γ-Glu)-CO-(CH2)18-CO2H); Aib20; C-terminal NH2
Turning to B3, the Ki amounted to 10.8 nM in the experiment with human GLP-1 receptor, 117 nM with human glucagon receptor and 0.116 nM with human GIP receptor.

B4: Example 150 (peptide)
peptide: YXEGTXTSDYSIXLDEKAQXEFISYLIEGGPSSGAPPPS
modifications: Aib2; αMeF(2F)6; αMeL13; K17((2-[2-(2-Amino-ethoxy)-ethoxy]-acetyl)2-(γ-Glu)-CO-(CH2)18-CO2H); Aib20; C-terminal NH2
As for B4, the Ki in the experiment with human GLP-1 receptor came out at 30.5 nM; with human glucagon receptor it was 63.2 nM; with human GIP receptor it was 0.0649 nM.

B5: Example 118 (peptide)
peptide: YXEGTXTSDYSIXLDEKAQXEFIEYLIEGGPSSGAPPPS
modifications: Aib2; αMeF(2F)6; αMeL13; K17((2-[2-(2-Amino-ethoxy)-ethoxy]-acetyl)2-(γ-Glu)-CO-(CH2)18-CO2H); Aib20; C-terminal NH2
As to B5, the values for the Ki in the experiment with human GLP-1 receptor, with human glucagon receptor and in the experiment with human GIP receptor were 6.1 nM, 53 nM and 0.0859 nM, respectively.

B6: Example 138 (peptide)
peptide: YXEGTXTSDYSIXLDKKAQXSFIEYLIEGGPSSGAPPPS
modifications: Aib2; αMeF6; αMeL13; K17((2-[2-(2-Amino-ethoxy)-ethoxy]-acetyl)2-(γ-Glu)-CO-(CH2)18-CO2H); Aib20; C-terminal NH2
B6: the Ki in the experiment with human GLP-1 receptor turned out to be 0.926 nM; with human glucagon receptor, 61.2 nM; in the experiment with human GIP receptor it was 0.0295 nM.

B7: Example 69 (peptide)
peptide: YXEGTXTSDYSIXLDKKAQXAFIEYLIEGGPSSGAPPPS
modifications: Aib2; αMeF6; αMeL13; K17((2-[2-(2-Amino-ethoxy)-ethoxy]-acetyl)2-(γ-Glu)-CO-(CH2)18-CO2H); Aib20; C-terminal NH2
As to B7, the Ki with human GLP-1 receptor was 1.22 nM; with human glucagon receptor it was 22.1 nM; with human GIP receptor, 0.03 nM.

B8: Example 140 (peptide)
peptide: YXEGTXTSDYSIXLDKKAQXDFIEYLIEGGPSSGAPPPS
modifications: Aib2; αMeF6; αMeL13; K17((2-[2-(2-Amino-ethoxy)-ethoxy]-acetyl)2-(γ-Glu)-CO-(CH2)18-CO2H); Aib20; C-terminal NH2
In the case of B8, the Ki with human GLP-1 receptor came to 1.46 nM; with human glucagon receptor it was 175 nM; in the experiment with human GIP receptor, 0.0474 nM.

B9: Example 154 (peptide)
peptide: Y[Aib]EGT[αMePhe(2-F)]TSDHSI[αMeL]LDEK([AEEA-AEEA-γGlu-C20 diacid])AQ[Aib]EFIEYLIEGGPSSGAPPPS-NH2
modifications: N-terminus assumed
SMILES: CC[C@H](C)[C@H](NC(=O)[C@H](CC(C)C)NC(=O)[C@H](Cc1ccc(O)cc1)NC(=O)[C@H](CCC(=O)O)NC(=O)[C@@H](NC(=O)[C@H](Cc1ccccc1)NC(=O)[C@H](CCC(=O)O)NC(=O)C(C)(C)NC(=O)[C@H](CCC(N)=O)NC(=O)[C@H](C)NC(=O)[C@H](CCCCNC(=O)COCCOCCNC(=O)COCCOCCNC(=O)CC[C@H](NC(=O)CCCCCCCCCCCCCCCCCCC(=O)O)C(=O)O)NC(=O)[C@H](CCC(=O)O)NC(=O)[C@H](CC(=O)O)NC(=O)[C@H](CC(C)C)NC(=O)[C@](C)(CC(C)C)NC(=O)[C@@H](NC(=O)[C@H](CO)NC(=O)[C@H](Cc1c[nH]cn1)NC(=O)[C@H](CC(=O)O)NC(=O)[C@H](CO)NC(=O)[C@@H](NC(=O)[C@](C)(Cc1ccccc1F)NC(=O)[C@@H](NC(=O)CNC(=O)[C@H](CCC(=O)O)NC(=O)C(C)(C)NC(=O)[C@@H](N)Cc1ccc(O)cc1)[C@@H](C)O)[C@@H](C)O)[C@@H](C)CC)[C@@H](C)CC)C(=O)N[C@@H](CCC(=O)O)C(=O)NCC(=O)NCC(=O)N1CCC[C@H]1C(=O)N[C@@H](CO)C(=O)N[C@@H](CO)C(=O)NCC(=O)N[C@@H](C)C(=O)N1CCC[C@H]1C(=O)N1CCC[C@H]1C(=O)N1CCC[C@H]1C(=O)N[C@@H](CO)C(N)=O
On to B9, for which the figures for the Ki in the experiment with human GLP-1 receptor, in the experiment with human glucagon receptor and with human GIP receptor were 5.64 nM, 762 nM and 0.061 nM, respectively.

B10: Example 126 (peptide)
peptide: YXEGTXTSDYSIXLDKKAQXAFIEYLIEAGPSSGAPPPS
modifications: Aib2; αMeF6; αMeL13; K17((2-[2-(2-Amino-ethoxy)-ethoxy]-acetyl)2-(γ-Glu)-CO-(CH2)18-CO2H); Aib20; C-terminal NH2
Consider B10, for which the figures for the Ki with human GLP-1 receptor, with human glucagon receptor and with human GIP receptor were 1.46 nM, 101 nM and 0.0644 nM, respectively.

B11: Example 128 (peptide)
peptide: YXEGTXTSDHSILLDKKAQXAFIEYLIEGGPSSGAPPPS
modifications: Aib2; αMeF6; K17((2-[2-(2-Amino-ethoxy)-ethoxy]-acetyl)2-(γ-Glu)-CO-(CH2)18-CO2H); Aib20; C-terminal NH2
In the case of B11, the figures for the Ki with human GLP-1 receptor, with human glucagon receptor and with human GIP receptor were 1.88 nM, 433 nM and 0.0625 nM, respectively.

B12: Example 142 (peptide)
peptide: YXEGTXTSDYSIXLDKKAQXHFIEYLIEGGPSSGAPPPS
modifications: Aib2; αMeF6; αMeL13; K17((2-[2-(2-Amino-ethoxy)-ethoxy]-acetyl)2-(γ-Glu)-CO-(CH2)18-CO2H); Aib20; C-terminal NH2
B12: the Ki in the experiment with human GLP-1 receptor was found to be 1.06 nM; with human glucagon receptor, 53.1 nM; in the experiment with human GIP receptor, 0.0275 nM.

B13: Example 129 (peptide)
peptide: YXEGTXTSDLSILLDKKAQXAFIEYLIEGGPSSGAPPPS
modifications: Aib2; αMeF6; K17((2-[2-(2-Amino-ethoxy)-ethoxy]-acetyl)2-(γ-Glu)-CO-(CH2)18-CO2H); Aib20; C-terminal NH2
For the molecule B13, the Ki with human GLP-1 receptor stood at 1 nM; in the experiment with human glucagon receptor, 14.9 nM; in the experiment with human GIP receptor, 0.0278 nM.

B14: Example 145 (peptide)
peptide: YXEGTXTSDASIXLDKKAQXAFIEYLIEGGPSSGAPPPS
modifications: Aib2; αMeF6; αMeL13; K17((2-[2-(2-Amino-ethoxy)-ethoxy]-acetyl)2-(γ-Glu)-CO-(CH2)18-CO2H); Aib20; C-terminal NH2
As to B14, the Ki amounted to 2.22 nM with human GLP-1 receptor, 158 nM with human glucagon receptor and 0.0652 nM with human GIP receptor.

B15: Example 127 (peptide)
peptide: YXEGTXTSDISILLDKKAQXAFIEYLIEGGPSSGAPPPS
modifications: Aib2; αMeF6; K17((2-[2-(2-Amino-ethoxy)-ethoxy]-acetyl)2-(γ-Glu)-CO-(CH2)18-CO2H); Aib20; C-terminal NH2
Turning to B15, the Ki with human GLP-1 receptor was 1.86 nM; in the experiment with human glucagon receptor, 43.6 nM; with human GIP receptor, 0.126 nM.

The term Ki denotes a dissociation constant, usually derived from enzyme kinetics or from competition with a known ligand. Low readings indicate a stronger hold on the target, high ones a looser hold on the target.
